Reference: patent US20240209106A1 (BEIGENE SWITZERLAND, published 2024)
Numbering of substitutions follows the chain as printed. Names may count otherwise. Read-outs that look alike come from different tables or passages of the source.

Tests used:
human CD137 ECD-mIgG2a [1] = target: human CD137 ECD-mIgG2a (human); experiment: SPR, antibody captured on anti-human Fc surface; analyte taken as human CD137 ECD-mIgG2a
human CD137 ECD-mIgG2a [2] = target: human CD137 ECD-mIgG2a (human); experiment: SPR, human CD137 ECD-mIgG2a
[3] = target: T1, full-length human CD137 (huCD137) (human, UniProt Q07011 24-255); experiment: flow cytometry on Hut78/huCD137 cells
T1 construct: On transduced Hut78 cells (Hut78/huCD137), transiently on HEK293 cells, or natively on PBMC/T cells; also called TNFRSF9; 4-1BB

human CEA on cells [4] = target: T2, human CEA on cells (human, UniProt P06731 35-685); experiment: flow cytometry on CT26/CEA cells
T2 construct: whole, on cells; also called CT26/CEA; MKN45
T2 sequence (looked up): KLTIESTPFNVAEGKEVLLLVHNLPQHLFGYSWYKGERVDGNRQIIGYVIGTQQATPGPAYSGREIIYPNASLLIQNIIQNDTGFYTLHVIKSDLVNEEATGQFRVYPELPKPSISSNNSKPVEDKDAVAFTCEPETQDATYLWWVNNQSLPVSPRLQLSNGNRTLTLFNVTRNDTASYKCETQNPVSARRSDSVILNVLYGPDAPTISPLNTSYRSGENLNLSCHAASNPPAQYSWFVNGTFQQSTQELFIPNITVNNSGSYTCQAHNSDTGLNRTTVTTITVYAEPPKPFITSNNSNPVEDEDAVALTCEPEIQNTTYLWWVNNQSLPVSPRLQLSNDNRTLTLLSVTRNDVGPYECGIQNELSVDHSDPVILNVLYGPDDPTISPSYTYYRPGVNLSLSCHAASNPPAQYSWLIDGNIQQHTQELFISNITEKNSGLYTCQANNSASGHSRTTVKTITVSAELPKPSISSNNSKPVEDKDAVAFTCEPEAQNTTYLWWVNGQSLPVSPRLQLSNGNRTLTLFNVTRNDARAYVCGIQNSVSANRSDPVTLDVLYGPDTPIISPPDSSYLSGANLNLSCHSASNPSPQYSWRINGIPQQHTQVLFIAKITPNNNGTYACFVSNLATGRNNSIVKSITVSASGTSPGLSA

[5] = target: T1, full-length human CD137 (huCD137); experiment: flow cytometry on Hut78/huCD137 cells; remark: listed apart in the source
human CD137 ECD-mIgG2a [6] = target: human CD137 ECD-mIgG2a (human); experiment: SPR, multispecific antibody captured on anti-human IgG Fc chip, human CD137 ECD-mIgG2a flowed over
Protocol: Briefly, anti-human IgG (Fc) antibody was immobilized on an activated CM5 biosensor chip (Cat.: BR100839, GE Life Sciences). Anti-huCD137 monoclonal antibodies or multispecific antibodies were flown through the chip surface and captured by anti-human IgG (Fc) antibody. […] The equilibrium dissociation constant (KD)) was calculated as the ratio koff/kₒₙ.

[7] = target: T1, full-length human CD137 (huCD137); experiment: flow cytometry on Hut78/huCD137 cells; remark: listed apart in the source
Description: (§1) Cell fluorescence was quantified using a flow cytometer (Guava easyCyte™ 8HT, Merck-Millipore, USA).

[8] = target: T1, full-length human CD137 (huCD137); experiment: cell-based or functional assay
human CD137 ECD-mIgG2a [9] = target: human CD137 ECD-mIgG2a (human); experiment: SPR (BIAcore T-200): antibody captured on anti-human IgG (Fc) CM5 chip, human CD137 ECD-mIgG2a as analyte, 1:1 Langmuir fit
Protocol: Characterization of anti-huCD137 VH domain antibodies were made by SPR assays using BIAcore™ T-200 (GE Life Sciences). Briefly, anti-human IgG (Fc) antibody was immobilized on an activated CM5 biosensor chip (Cat.: BR100839, GE Life Sciences). Anti-huCD137 domain antibodies were flowed over the chip surface and captured by anti-human IgG (Fc) antibody. […] The equilibrium dissociation constant (KD) was calculated as the ratio koff/kₒₙ.

human CEA on cells [10] = target: T2, human CEA on cells; experiment: flow cytometry on CT26/CEA cells; remark: listed apart in the source
Description: as §1

human CD137 ECD-mIgG2a [11] = target: human CD137 ECD-mIgG2a (human); experiment: SPR, human CD137 ECD-mIgG2a; remark: listed apart in the source
[12] = target: T1, full-length human CD137 (huCD137); experiment: flow cytometry on Hut78/huCD137 cells; remark: listed apart in the source
[13] = target: T1, full-length human CD137 (huCD137); experiment: cell-based or functional assay; remark: listed apart in the source
human CD137 ECD-mIgG2a [14] = target: human CD137 ECD-mIgG2a (human); experiment: ELISA on coated human CD137-ECD-mIgG2a with supernatant containing the CH3 fusion [panel B]

T1 sequence (Q07011 24-255 limits assumed): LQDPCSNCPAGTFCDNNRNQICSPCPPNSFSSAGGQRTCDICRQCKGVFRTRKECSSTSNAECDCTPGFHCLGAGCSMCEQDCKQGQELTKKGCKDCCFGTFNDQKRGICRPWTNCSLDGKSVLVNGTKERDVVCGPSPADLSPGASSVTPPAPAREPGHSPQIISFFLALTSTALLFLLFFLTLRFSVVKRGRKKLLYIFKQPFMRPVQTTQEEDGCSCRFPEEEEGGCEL
human CD137 ECD-mIgG2a (human), sequence (chain, as listed by the source limits assumed): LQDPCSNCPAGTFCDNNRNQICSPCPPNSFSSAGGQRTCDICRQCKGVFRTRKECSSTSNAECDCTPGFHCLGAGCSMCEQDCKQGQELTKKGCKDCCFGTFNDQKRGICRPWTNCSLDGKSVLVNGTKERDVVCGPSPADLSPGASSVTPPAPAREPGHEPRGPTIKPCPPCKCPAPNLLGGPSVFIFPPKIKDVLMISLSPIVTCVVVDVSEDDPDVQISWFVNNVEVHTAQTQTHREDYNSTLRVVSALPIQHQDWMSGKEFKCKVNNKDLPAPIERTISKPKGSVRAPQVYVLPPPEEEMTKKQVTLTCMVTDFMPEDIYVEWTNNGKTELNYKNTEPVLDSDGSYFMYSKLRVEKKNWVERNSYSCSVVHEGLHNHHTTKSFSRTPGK

B1: A-CD137×CEA (bispecific antibody, human IgG1, kappa)
heavy: QVQLVQSGAEVKKPGASVKVSCKASGYIFTSYYLHWVRQAPGQGLEWIGYINPQTGKTSYAQKFQGRVTMTRDTSTSTVYMELSSLRSEDTAVYYCAREYGNYNYPLDYWGQGTLVTVSSASTKGPSVFPLAPSSKSTSGGTAALGCLVKDYFPEPVTVSWNSGALTSGVHTFPAVLQSSGLYSLSSVVTVPSSSLGTQTYICNVNHKPSNTKVDKKVEPKSCDKTHTCPPCPAPPAAGPSVFLFPPKPKDTLMISRTPEVTCVVVDVSHEDPEVKFNWYVDGVEVHNAKTKPREEQYNSTYRVVSVLTVLHQDWLNGKEYKCKVSNKALAAPIEKTISKAKGQPREPQVYTLPPSREEMTKNQVSLTCLVKGFYPSDIAVEWESNGQPENNYKTTPPVLDSDGSFFLYSKLTVDKSRWQQGNVFSCSVMHEALHNHYTQKSLSLSPGKGGGGSEVQLLESGGGLVQPGGSLRLSCAASGFMLSAEDVGWVRQAPGKGLEWVSAILDFGGSTYYADSVKGRFTISRDNSKNTLYLQMNSLRAEDTAVYYCARVVYHAGGGVTFDYWGQGTLVTVSS
light: DIQMTQSPSSLSASVGDRVTITCRASENQYGYLAWYQQKPGKVPKLLIYNYKNLVEGVPSRFSGSGSGTDFTLTISSLQPEDVATYYCQHHLGTPYTFGQGTKVEIKRTVAAPSVFIFPPSDEQLKSGTASVVCLLNNFYPREAKVQWKVDNALQSGNSQESVTEQDSKDSTYSLSSTLTLSKADYEKHKVYACEVTHQGLSSPVTKSFNRGEC
notes: Symmetric IgG-like; inert Fc; also called Format A
Kd (human CD137 ECD-mIgG2a [1]): 360 nM | koff (human CD137 ECD-mIgG2a [1]): 0.00215 s⁻¹ | kon (human CD137 ECD-mIgG2a [1]): 5970 M⁻¹ s⁻¹ | Kd (human CD137 ECD-mIgG2a [2]): 360 nM | EC50 [3]: 0.57 µg/mL | EC50 (human CEA on cells [4]): 0.75 µg/mL

B2: D-CD137×CEA (bispecific antibody, human IgG1, kappa)
heavy: EVQLLESGGGLVQPGGSLRLSCAASGFMLSAEDVGWVRQAPGKGLEWVSAILDFGGSTYYADSVKGRFTISRDNSKNTLYLQMNSLRAEDTAVYYCARVVYHAGGGVTFDYWGQGTLVTVSSSGGGGSQVQLVQSGAEVKKPGASVKVSCKASGYIFTSYYLHWVRQAPGQGLEWIGYINPQTGKTSYAQKFQGRVTMTRDTSTSTVYMELSSLRSEDTAVYYCAREYGNYNYPLDYWGQGTLVTVSSASTKGPSVFPLAPSSKSTSGGTAALGCLVKDYFPEPVTVSWNSGALTSGVHTFPAVLQSSGLYSLSSVVTVPSSSLGTQTYICNVNHKPSNTKVDKKVEPKSCDKTHTCPPCPAPPAAGPSVFLFPPKPKDTLMISRTPEVTCVVVDVSHEDPEVKFNWYVDGVEVHNAKTKPREEQYNSTYRVVSVLTVLHQDWLNGKEYKCKVSNKALAAPIEKTISKAKGQPREPQVYTLPPSREEMTKNQVSLTCLVKGFYPSDIAVEWESNGQPENNYKTTPPVLDSDGSFFLYSKLTVDKSRWQQGNVFSCSVMHEALHNHYTQKSLSLSPGK
light: B1 light
notes: Symmetric IgG-like; also called Format D
Kd (human CD137 ECD-mIgG2a [2]): 78 nM | EC50 [3]: 2.28 µg/mL | EC50 (human CEA on cells [4]): 3.78 µg/mL

B3: A-CD137×CEA-M8 (bispecific antibody, human IgG1, kappa)
heavy: B1 heavy with F481R, M482T, S529A, N538S
light: B1 light
Kd (human CD137 ECD-mIgG2a [1]): 184 nM | koff (human CD137 ECD-mIgG2a [1]): 0.0534 s⁻¹ | kon (human CD137 ECD-mIgG2a [1]): 290000 M⁻¹ s⁻¹ | EC50 (read off the curve) [5]: ~0.5 µg/mL

B4: Format A - BGA-9442 (bispecific antibody, human IgG1, kappa)
heavy: B1 heavy with M482T, L483I, F508S, D516E, S529A, N538S, V553Y, Y565L, W566R, L571Q
light: B1 light
notes: Light chain by the description of Format A
Kd (human CD137 ECD-mIgG2a [6]): 164 nM | EC50 [7]: 0.5 µg/mL | Functions EC50(ug/ml), PBMC based cytokine release assay [8]: 0.233 µg/mL | Functions Top, PBMC based cytokine release assay [8]: 1720 | Kd (human CD137 ECD-mIgG2a [9]): 151 nM | koff (human CD137 ECD-mIgG2a [9]): 0.00604 s⁻¹ | kon (human CD137 ECD-mIgG2a [9]): 39900 M⁻¹ s⁻¹ | EC50 (human CEA on cells [10]): 0.5 µg/mL

B5: Format A - BGA-3386 (bispecific antibody, human IgG1, kappa)
heavy: B1 heavy with M482T, L483V, F508K, D516E, S529A, N538S, V553I, Y565T
light: B1 light
notes: as for B4
Kd (human CD137 ECD-mIgG2a [6]): 21.4 nM | EC50 [7]: 0.21 µg/mL | Functions EC50(ug/ml), PBMC based cytokine release assay [8]: 0.0768 µg/mL | Functions Top, PBMC based cytokine release assay [8]: 1950 | Kd (human CD137 ECD-mIgG2a [9]): 21.4 nM | koff (human CD137 ECD-mIgG2a [9]): 0.000953 s⁻¹ | kon (human CD137 ECD-mIgG2a [9]): 44600 M⁻¹ s⁻¹ | EC50 (human CEA on cells [10]): 0.21 µg/mL

B6: Format A-BGA-7556 (bispecific antibody, human IgG1, kappa)
heavy: B1 heavy with M482T, D516E, S529A, N538S, W566R, L571Q
light: B1 light
notes: Light chain by the description of Format A; also called BGA-7556 in Format A-CD137 × CEA
Kd (human CD137 ECD-mIgG2a [6]): 649 nM | Kd (human CD137 ECD-mIgG2a [11]): 669 nM | EC50 [12]: 3.23 µg/mL

B7: Format A-BGA-5623 (bispecific antibody, human IgG1, kappa)
heavy: B1 heavy with M482T, L483V, F508K, D516E, S529A, N538S, V553I, Y565T, W566R, L571Q
light: B1 light
notes: Module ratio 2:2, inert Fc
Functional assay EC50 (ug/ml), in vitro CD137 activation (PBMC cytokine release) [13]: 0.31 µg/mL | Kd (human CD137 ECD-mIgG2a [6]): 94.8 nM | EC50 [7]: 0.38 µg/mL | Functions EC50(ug/ml), PBMC based cytokine release assay [8]: 0.341 µg/mL | Functions Top, PBMC based cytokine release assay [8]: 2510 | Kd (human CD137 ECD-mIgG2a [9]): 111 nM | koff (human CD137 ECD-mIgG2a [9]): 0.0029 s⁻¹ | kon (human CD137 ECD-mIgG2a [9]): 26100 M⁻¹ s⁻¹

B8: CH3-BGA-4712-M3 (other)
chain: GQPREPQVYTLPPSREEMTKNQVSLTCLVKGFYPSDIAVEWESNGQPENNYKTTPPVLDSDGSFFLYSKLTVDKSRWQQGNVFSCSVMHEALHNHYTQKSLSLSPGKGGGGSEVQLLESGGGLVQPGGSLRLSCAASGFTLSAEDVGWVRQAPGKGLEWVSAILDFGGSTYYAESVKGRFTISRDNAKNTLYLQMSSLRAEDTAVYYCARVVYHAGGGVTFDYWGQGTLVTVSS
notes: Tested as bacterial supernatant; expressed as a dimer of CH3 fusion proteins from the phagemid; also called CH3 fusion of anti-huCD137 VH domain antibody
binding result (human CD137 ECD-mIgG2a [14]): binds

B9: CH3-BGA-4712-M3 with W47Y mutation in VH region (other)
chain: B8 chain with W159Y
binding result (human CD137 ECD-mIgG2a [14]): no binding

B10: CH3-BGA-4712-M3 with W47F mutation in VH region (other)
chain: B8 chain with W159F
binding result (human CD137 ECD-mIgG2a [14]): no binding

B11: CH3-BGA-4712-M3 with W47G mutation in VH region (other)
chain: B8 chain with W159G
notes: built from pieces so that position 47 counts on the VH
binding result (human CD137 ECD-mIgG2a [14]): no binding
